Measurements as given in patent US20230025707A1.

How the values were obtained:
[1] = target: Lewy body α-Synuclein (human) (UniProt P37840); assay: IHC, human amygdala; OD of Lewy bodies / OD of tissue
[2] = target: human α-Synuclein pre-formed fibrils (human) (UniProt P37840); assay: cell-based or functional assay

| LB Discrimination Index [1] | % Inhibition (primary neuron assay) [2] [%] | Substance |
| --- | --- | --- |
| 2.1 | – | Syn303 (antibody) |
| – | 94.7 | Syn211 (antibody) |
| – | 0 | IgG (antibody) |
